# Laboratory results as given in patent US20240034813A1 (Janssen / Centocor, published 2024).
# B1: amivantamab (bispecific antibody, human IgG1, kappa)
# heavy 1: not shown
# light 1: not shown
# heavy 2: not shown
# light 2: DIQMTQSPSSVSASVGDRVTITCRASQGISNWLAWFQHKPGKAPKLLIYAASSLLSGVPSRFSGSGSGTDFTLTISSLQPEDFATYYCQQANSFPITFGQGTRLEIKRTVAAPSVFIFPPSDEQLKSGTASVVCLLNNFYPREAKVQWKVDNALQSGNSQESVTEQDSKDSTYSLSSTLTLSKADYEKHKVYACEVTHQGLSSPVTKSFNRGEC
# notes: The samples tested were high concentration (160 mg/mL) formulations, fresh or stored or stressed; also called JNJ-61186372; bispecific EGFR-cMet antibody
# Assays:
# [1] = target: T1, recombinant human EGFR/ErbB1/HER1 with C-terminal His tag, Cy5-labeled (human, UniProt P00533 25-645, Cy5 label (reacted with Cy5 Mono NHS Ester; sites not stated)); assay: competitive TR-FRET (Eu-amivantamab/Cy5-EGFR), EC50 ratio vs Reference Material; Ex. 2 Formulation 1 (10 mM histidine), 3 months at 40 C
# T1 construct: Commercial protein; also called Cy5-EGFR; Cy5-labeled EGFR antigen; not shown: C-terminal His tag
# Description: (§1) In this procedure, varying concentrations of unlabeled bispecific EGFR-cMet antibody sample compete with donor fluorophore (Europium (Eu) chelate) labeled bispecific EGFR-cMet antibody for binding to an acceptor fluorophore (Cy5)-labeled EGFR antigen. Excitation of the donor fluorophore results in a transfer of energy to the bound acceptor fluorophore (FRET process). The resultant FRET is detected by emission of light at 665 nm using a microplate reader capable of measuring time-resolved fluorescence. Sample dose response curves are compared to the RM.
# (§2) EGFR Binding Materials and Methods. Certified commercial EGFR, a recombinant human EGFR/ErbB1/HER1 with C-terminal His tag is reacted with certified commercial Cy5 Mono NHS Ester to produce Cy5-labeled EGFR. Validated bispecific EGFR-cMet antibody is reacted with certified commercial Europium (Eu) chelate to produce Eu-labeled bispecific EGFR-cMet antibody. […] Fluorescence is then measured by spectrophotometry at 665 nm, plotted against antibody concentration and analyzed by a four-parameter logistic model. The antibody concentration required to obtain half of the maximum fluorescence response (EC50) is determined for RM, assay control and samples. The potencies of assay control and samples are calculated based on the ratio of the sample (or control) and RM EC50 values and reported as a percentage activity relative to the RM.
# [2] = target: T2, recombinant cMet/HGFR with c-terminal His-tag, Cy5-labeled (UniProt P08581 25-932, limits assumed, Cy5 label (reacted with Cy5 Mono NHS Ester; sites not stated)); assay: competitive TR-FRET (Eu-amivantamab/Cy5-c-MET), EC50 ratio vs Reference Material; Ex. 2 Formulation 1 (10 mM histidine), T0, 25 C table
# T2 construct: Commercial protein; also called Cy5-c-MET; Cy5-labeled c-MET antigen; not shown: C-terminal His-tag
# Description: as §1, with “(Cy5)-labeled c-MET” for “(Cy5)-labeled EGFR”, “the Reference Material (RM).” for “the RM.”
# as §2, with “c-MET Binding” for “EGFR Binding”, “commercial cMet,” for “commercial EGFR,”, “recombinant cMet/HGFR” for “recombinant human EGFR/ErbB1/HER1”, “with c-terminal His-tag” for “with C-terminal His tag”, “Cy5-labeled c-MET.” for “Cy5-labeled EGFR.”, “produce Eu labeled” for “produce Eu-labeled”
# [3] = target: T1, recombinant human EGFR/ErbB1/HER1 with …; assay: competitive TR-FRET (Eu-amivantamab/Cy5-EGFR), EC50 ratio vs Reference Material; Ex. 2 Formulation 1 (10 mM histidine), T0, 40 C table
# Description: as §1, §2
# [4] = target: T1, recombinant human EGFR/ErbB1/HER1 with …; assay: competitive TR-FRET (Eu-amivantamab/Cy5-EGFR), EC50 ratio vs Reference Material; Ex. 2 Formulation 3 (acetate), T0, 40 C table
# Description: as §1, §2
# [5] = target: T1, recombinant human EGFR/ErbB1/HER1 with …; assay: competitive TR-FRET (Eu-amivantamab/Cy5-EGFR), EC50 ratio vs Reference Material; Ex. 12 drug product with rHuPH20, 6 months at 25 C
# Description: as §1, §2
# [6] = target: T2, recombinant cMet/HGFR with c-terminal …; assay: competitive TR-FRET (Eu-amivantamab/Cy5-c-MET), EC50 ratio vs Reference Material; Ex. 12 drug product with rHuPH20, 3 months at 5 C
# Description: as §1, with “(Cy5)-labeled c-MET” for “(Cy5)-labeled EGFR”, “the Reference Material (RM).” for “the RM.”
# as §2, with “c-MET Binding” for “EGFR Binding”, “commercial cMet,” for “commercial EGFR,”, “recombinant cMet/HGFR” for “recombinant human EGFR/ErbB1/HER1”, “with c-terminal His-tag” for “with C-terminal His tag”, “Cy5-labeled c-MET.” for “Cy5-labeled EGFR.”, “produce Eu labeled” for “produce Eu-labeled”
# [7] = target: T1, recombinant human EGFR/ErbB1/HER1 with …; assay: competitive TR-FRET (Eu-amivantamab/Cy5-EGFR), EC50 ratio vs Reference Material; Ex. 2 Formulation 2 (50 mM histidine), 3 months at 25 C
# Description: as §1, §2
# [8] = target: T2, recombinant cMet/HGFR with c-terminal …; assay: competitive TR-FRET (Eu-amivantamab/Cy5-c-MET), EC50 ratio vs Reference Material; Ex. 12 drug product with rHuPH20, 9 months at 5 C
# Description: as §1, with “(Cy5)-labeled c-MET” for “(Cy5)-labeled EGFR”, “the Reference Material (RM).” for “the RM.”
# as §2, with “c-MET Binding” for “EGFR Binding”, “commercial cMet,” for “commercial EGFR,”, “recombinant cMet/HGFR” for “recombinant human EGFR/ErbB1/HER1”, “with c-terminal His-tag” for “with C-terminal His tag”, “Cy5-labeled c-MET.” for “Cy5-labeled EGFR.”, “produce Eu labeled” for “produce Eu-labeled”
binder,measurement,setting,value
B1,EGFR Binding % activity relative to RM,[1],41%
same,cMET Binding % activity relative to RM,[2],87%
same,EGFR Binding % activity relative to RM,[3],103%
same,EGFR Binding % activity relative to RM,[4],103%
same,EGFR Binding activity relative to Reference Material (%),[5],54%
same,cMET Binding activity relative to Reference Material (%),[6],97%
same,EGFR Binding % activity relative to RM,[7],77%
same,cMET Binding activity relative to Reference Material (%),[8],106%
